According to the nanobody polyreactivity screen of Harvey et al. (2022):

Assay: yeast display, Sf9 membrane polyspecificity reagent, FACS + sequencing; frameworks hold sequencing errors
In short: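 Nanobodies came from a synthetic yeast display library in Saccharomyces cerevisiae BJ5465, induced with galactose for 36–48 hours and stained for 1 hour at 4 °C with 10% biotinylated, detergent-solubilized Sf9 membrane reagent. Cells were enriched on streptavidin microbeads and then FACS-sorted, with low and high (top ~1%) gates set on anti-HA fluorescence for expression and streptavidin fluorescence for reagent binding. Each polyreactivity label reflects the gate a clone came from. Genes were amplified by colony PCR, sequenced by MiSeq 2 × 250 and filtered by CDR length.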

Sequence | polyreactivity (PSR sort gate)
QVQLVESGGGVVQAGGSLRLTCAASGRTFYVYAMGWYRQAPGKEREFVAAITSSGGSTYYADSVKGRFTISRDNAKNTVYLQMNSLNPEDTAVYYSDAEWSTPSYVGFADGFEYWGQGTQVTVSS | low polyreactivity
QVQLVESGGGVVQAGGSLSLSCAASGFNFNYYAMGWYRPAPGKERELVAISRGGTTNYADSVKGRFTISRDNAKNTVYLQMNSLKPEDTAVYYCAVTGTYYGYSWQSRYKYDYWGQGTQVTVSS | high polyreactivity
QVQLVESGGGVVQAGGTLRLSCAASGRIFSYYDMGWYRQAPGKERELVAAITWGGGATYYADSVKGRFTISRDNAKNTVYLLMNSLKPEDTAVYYCAADWSPSIWEYDYWGQGTQVTVSS | low polyreactivity
QVQLVESGGGYVQAGGSLRLSCAASGRTFLGYDMGWYRQAPGKERELVAAISSSGGSTYYADSVKGRFTISRDNAKNTVYLEMNSLKPEDTAVYYCAKRNRATGASGHRFGYWGQGTHVTVSS | high polyreactivity
QVQLVESGGLLVQAGGSLRLSCAASGSNSYRYDIVWYRQPPGKERELVATIRSGGSTNYADSVKGRFTISRDNAKNTVYLQMNSLKPEDTAVYYCASRLYARKKLHFSADSDYWGQGTQVSVSS | low polyreactivity
QVQLVESGGPLVQAGGSLRLICAASGRTFYYNAKGWYRQAPGKDRELVAAITWSGGGTYYADSVKGRFTISRDNAKNTDYLQMNSLKPEDTAFYYCAAEDWSIEYEYWGQGTQVTVSS | high polyreactivity
QVQLVESGGRIVQAGGSLRLRCAASGSTFHRYAMGRYRQAPGKERELVAAISRSGGSTYYADSVKGRFTISRDTAKNTVYLLMNSLKPVDTAVYYCAADRTGHGFGYWGQGTQVTVSS | high polyreactivity
QVQLVESGGRKVQAGGSLRLSCAASGYTSSRYAMGRYRPAPGKERELVAAISGTGGSTNYADSVKGRFTISRDNAKNNVYLQKNSLKPEDTAVYYCAKRSRTYGTSPYYYWGQGTQVSVSS | high polyreactivity
QVQLVESGGRLFQAGGSLRLSCAASGFTTSAYTKGWYRQAPGKERELVAVISARGGSTSYADSVKGRFTISRDNAKNPVYLQMKCRKPEDTAVFYCAARGRAHWHYDYWGHGTQVTVSS | high polyreactivity
QVQLVESGGRLFQAGGSLRLSCPASGFTFVYNAMGWYRQAPGKERELVATISSGGGRTYYADSVKGRFTISGDNAKNTVSLQKYSQKPEDTAVYYCATVRRTSSGERHEFWGQGTQVTVSS | low polyreactivity
QVQLVESGGRLHQAGGSLRLICAASGSIIATYAMGWYRPAHGKERELVAAITSSDGSTNYADSVKGRFTISRDNAKNTVYLQMNCLTPEDTAVYYCAKDVWRHYLNLYDYWGQGTQVTVSS | low polyreactivity
QVQLVESGGRLVHAGGSLRLSCAASGSTFERNLMGWYSEAPGKERELVAAISRVSSTNYADSVKGRFTISRDNAKNTVYLQMNSVKPEDTAVYSCAADRAGSIMNYWGQGTQVTVSS | low polyreactivity
QVQLVESGGRLVQAGASLRLSCAASGFTFGGYAMGWYRQPHGKQRELVAAIDSSGGRTYNADSVKGRFTISRDNAKNTVYLQMNSLKPEDTAVYYCNAVYGSDGYDYWGQGTQVTVSS | high polyreactivity
QVQLVESGGRLVQAGGRLRLSSAATGLIFYANAMGWYRQAPGKQREFVADISNSGGSTYYADSVKGRFTISRDNAKNTVYLQMNSLKPEDTAVYYCNRVAYKRGYGVRYGGDYDYSGQGTQVTVSS | low polyreactivity
QVQLVESGGRLVQAGGSHRIRCAASGFIFWYYAMGWYRPAPGKERELVAGITTGGSTNYADSVKGRFTISRDNAKNTVYLEMNSLKPEDTAVYYCNADPTYQVGYDYWGQGTQVTVSS | low polyreactivity
QVQLVESGGRLVQAGGSLLLSCAASGRIFDKYAMGWYRQAPGKERELVAAITYIDSGTYYADSVKGRFTISRDNAKNTVYLQMNSLKPEDTAVYYCAARYPSDYDYWGQDTQVTVSS | low polyreactivity
QVQLVESGGRLVQAGGSLRFTCAASGSIFYSYAMGWYRQAPGKERELLAAINYSGSSTYYADSVKGRFTISRDNAKNTVYLQMNSLKPEDTAVYYCAAVIHSQYVDYYYWGQGTQVTVSS | high polyreactivity
QVQLVESGGRLVQAGGSLRIICAASGIIFFHYAMGWYRQAPGKERELVAAITCSGGSTYYADSVKGRFTISRDKAKNTVYLHMNSLKPEDTAVYYGNAVLHRRLYDYWGQGTQVTVSS | high polyreactivity
QVQLVESGGRLVQAGGSLRLICAASGFIFWYYAMGWYRQAPGKERELVADISSGGSTNYADSVKGRFTISRDNAKNTVYLQMNSLKPEDTAVYYCAADTFRRDDYWGQGTQVTVSS | low polyreactivity
QVQLVESGGRLVQAGGSLRLICAASGLIFRAYAMGWYIQAPGKERELVAAISRNGGSTYYADSVKGRFTISRDNAKNTVYLQMNILKPEDTAGYYCNKVSRSSVYQDYYYWGQGTQVTVSS | high polyreactivity
QVQLVESGGRLVQAGGSLRLRCAASGSIFGGYTMGRSRQAPGKERELVAAISRRGGNTYYADSVKGRFTISRDNAKNTVYLQMNSLKPEDTAVYYGAVRWPSARIPVKLDYWGQGTQVSVSS | high polyreactivity
QVQLVESGGRLVQAGGSLRLSCAACGGIIWYNTMGWYRQAPGKERELVAAISDSGGRTSYADSVKGRFTISRDNAKNTVYLQMNSLKPEDTAVYYCNVDYVVSRGFIYRVDYWGQGTQVTVSS | low polyreactivity

Sequence | polyreactivity (PSR sort gate)
QVQLVESGGRLVQAGGSLRLSCAASAITFGHNAMGWYRQAPGKGRELVATISTRGGSTYADSVKGRFTISRDNAKNTVYLQMNSLKPEDTAVYYCAAPAGGYVPYFYEFDYWGQGTQVTVSS | low polyreactivity
QVQLVESGGRLVQAGGSLRLSCAASGFIFAYYSMGWYRKAPGKERELVAAISQSGTSTYYADSLKGRFTISRAKAKNTVYLQMNSLKPVDTAVYYCNAELRDLEYDYWGQGTQVTVSS | low polyreactivity
QVQLVESGGRLVQAGGSLRLSCAASGFIFEDYAMGWYRQAPGKERELVAAITWRGGSTYYADSVKGRFTISRDHAKTTVYLQMNSLKPEDTAVYYCAAEDYWGWRDYWGQGTQVTVSS | high polyreactivity
QVQLVESGGRLVQAGGSLRLSCAASGFIFKLYGMGWYRQAPGKESEMVAAINTSGGRTYYADSVKGRFTISLDNAKNTVYLQMNSLKPEDTAVYYCNTYYSFYGGGYDHWVQGTQVTVSS | high polyreactivity
QVQLVESGGRLVQAGGSLRLSCAASGFTFGHYAMGWSRPARGKEWELVAAIRWSGGSTYYADSVKGRFTISRDNAKNTVYLQMNSLKPEDTAVYYCAARRFDGFEYDYWGDGTQVTVSS | low polyreactivity
QVQLVESGGRLVQAGGSLRLSCAASGFTFPNYAMGWYRQAPGKERELVAAISWSGTSTYYADSVKGRFTISRDNAKNTVYLQMNSLKPEDTAVYDCAAKYQRGGYYESYWLRTGYYWGQGTQVTVSS | high polyreactivity
QVQLVESGGRLVQAGGSLRLSCAASGFTFSEYAMRWYRPAPGKVRELVAAINDGGGSTYYADSVKGRFTISRDNAKNTVYLQMNSLKPEDTAVYYCAVEQRLRYGYDYWGQGTQVTVSS | high polyreactivity
QVQLVESGGRLVQAGGSLRLSCAASGFTFVEYAMGWYRQAPGKERELVAANSRSGSTYYADSVKGRFTISRDNSKNTVYLQMNSLKPEDTAVYYCATLVYRKQYSRYDYWGQGTQVTVSS | high polyreactivity
QVQLVESGGRLVQAGGSLRLSCAASGGIFYYNAMGRYRQAPGKERELVAAIRYRGGSTYYADSVKGRFTISRDNAKNTVYLQMNSLKPEDTAVYYCAADYYRSRYYYWGQGTQVTVSS | low polyreactivity
QVQLVESGGRLVQAGGSLRLSCAASGGTLTSNPMGWYRPAPGKERELVAAINKSGGSTYYADSVKGRFTISRDNAKNTVYLQMNSLKPEDTAVYYCAARFYYWVSGGLVKYNYWGQGTQVTVSS | high polyreactivity
QVQLVESGGRLVQAGGSLRLSCAASGIIFKGYDMGWYRQEHGKVRELVAGITWIVGSTYADSVKGRFTISRDNAKNTVYLQMNSLKPEDTAVYYCNADPELTGYRFLCAEGVEYWGEGTQVTVSS | low polyreactivity
QVQLVESGGRLVQAGGSLRLSCAASGIIFTNYAMGWYRQAPGKERELVAAISSSSGTTYYADSVKGRFTISRDNAKNTVYLQMNSLKPEDTAVYYCAARPVYSTGYPRGRYGYWGQGTQVTVSS | high polyreactivity
QVQLVESGGRLVQAGGSLRLSCAASGIIFWVNAMGWYRQSTGKESELVAAISGRGGRTYYVDSVKGRFTISRDNAKNTVYLQMNSLKPEDTAVYYCNTVPYPAYLARMDYWGQGTQGTVSS | high polyreactivity
QVQLVESGGRLVQAGGSLRLSCAASGITFGVYAMGWYRQAPGKERELVAAISRRGAATYYADSVKGRFTISRDNAKNTVYLQMNSLKPEDTAVYYCAAYLARRQYDYWGQGTHVTVSS | high polyreactivity
QVQLVESGGRLVQAGGSLRLSCAASGLTFDPNDMGWYRQAPGKERELVAAISWSSGSTYYADSVKGRFTISRDNAKNTVYLQMNSLKPEDTAVYYCAAYFTLLFGTELYDYDYWGQGTQVTVSS | high polyreactivity
QVQLVESGGRLVQAGGSLRLSCAASGLTFGSYAMGWYRQAPGKESELVAGISARAGRTYYADSVKGRFTISRDNAKNTVYLQMNSLKPEDTAVYYCAARVYSRYHTKGFSNYQYDYWGQGTQVTVSS | high polyreactivity
QVQLVESGGRLVQAGGSLRLSCAASGLTITRNAMGWYRQAPGKERELVAAISWSGGSTYYADSVKGRFTISRDNAKNTVYLQMNSLKPEDTAVYDCAAEPYKQYTGYYYSGFEYWGQGTQVTVSS | high polyreactivity
QVQLVESGGRLVQAGGSLRLSCAASGLTLFRYAKGWYRTAPGKERELVAAIDYGGGTYYADSVKGRFTISRDNAKNTVYLQMNSLKPEDTAVYYCAVEPEYKYYEGDYWGQGTQVTVSS | low polyreactivity
QVQLVESGGRLVQAGGSLRLSCAASGNILRFNALGWYRQAPGKEWQLVAAISRSGGTTYFADSVKGRFTISRDTAKNTVYLQMNSLKPEDTAVYYCAARSRYGESPGYYWGQGTQVTVSS | high polyreactivity
QVQLVESGGRLVQAGGSLRLSCAASGRIFGPYVMGWYRQAPGKERELFAAISTSGTYTYYADSVNGRFTISPDNAKNTVYLQMNSLKPEDTAVYYCAKRSGARHRLMDYWGQGTQVTVSS | low polyreactivity
QVQLVESGGRLVQAGGSLRLSCAASGRIFLSYAMGWYRQAPGKERELVAAISRSGGRTYYADSVKGRFTISRDNAKNTVYLQMNSLKPEDTAVYYCNVVVYVLRHYLRYDYWGQGTQVTVSS | high polyreactivity
